Experimental data as given in patent publication US20230002496A1 (STAIDSON BEIJING BIOPHARMACEUTICALS, published 2023).
Numbering of substitutions follows the chain as printed. Read-outs that look alike come from different tables or passages of the source. Each block holds one molecule with its values, some of them ahead of it.

How the values were obtained:
[1] = target: T1, human GM-CSFRα, full length on cells (human, UniProt P15509 23-400); assay: cell-based or functional assay
T1 sequence: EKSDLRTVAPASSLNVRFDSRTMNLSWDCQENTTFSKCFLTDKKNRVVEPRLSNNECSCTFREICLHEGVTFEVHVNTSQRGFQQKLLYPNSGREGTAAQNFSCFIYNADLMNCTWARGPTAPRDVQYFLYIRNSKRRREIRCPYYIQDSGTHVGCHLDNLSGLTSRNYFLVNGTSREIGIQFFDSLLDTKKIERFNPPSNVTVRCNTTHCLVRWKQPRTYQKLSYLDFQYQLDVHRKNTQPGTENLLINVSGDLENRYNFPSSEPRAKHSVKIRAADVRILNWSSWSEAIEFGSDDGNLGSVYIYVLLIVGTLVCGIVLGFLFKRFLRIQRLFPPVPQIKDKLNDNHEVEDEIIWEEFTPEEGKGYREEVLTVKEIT

human GM-CSFRα-6His [2] = target: T2, human GM-CSFRα-6His (human, UniProt P15509 23-320); assay: SPR, Biacore T200, antibody (IgG4) on CM5 chip, GMRah as analyte
T2 construct: pTT5-GMRa-6his (ECD), made in 293F cells; also called GMRah; GMRa-6his(ECD)
T2 sequence: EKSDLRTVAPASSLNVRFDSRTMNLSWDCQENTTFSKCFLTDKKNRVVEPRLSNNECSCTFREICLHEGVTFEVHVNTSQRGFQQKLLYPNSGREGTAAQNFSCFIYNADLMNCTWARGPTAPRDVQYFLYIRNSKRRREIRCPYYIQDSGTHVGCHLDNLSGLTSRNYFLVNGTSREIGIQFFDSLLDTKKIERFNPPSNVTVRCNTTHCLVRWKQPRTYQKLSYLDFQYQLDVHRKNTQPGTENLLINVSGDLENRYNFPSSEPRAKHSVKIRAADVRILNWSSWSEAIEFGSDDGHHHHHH
Procedure: The affinities for GMRah at various concentrations were measured. […] The concentrations of 0.625 and 0 nM were repeated once. Using the SPR technology, the association and dissociation rates were measured, and binding affinity was determined.

[3] = target: T1, human GM-CSFRα, full length on cells; assay: cell-based or functional assay; remark: listed apart in the source
[4] = target: T1, human GM-CSFRα, full length on cells; assay: cell-based or functional assay; remark: listed apart in the source
[5] = target: T1, human GM-CSFRα, full length on cells; assay: cell-based or functional assay; remark: listed apart in the source
[6] = target: T3, cynomolgus monkey GM-CSFRα on granulocytes (cynomolgus monkey, UniProt A0A2K5UC70 23-393); assay: cell-based or functional assay
T3 sequence: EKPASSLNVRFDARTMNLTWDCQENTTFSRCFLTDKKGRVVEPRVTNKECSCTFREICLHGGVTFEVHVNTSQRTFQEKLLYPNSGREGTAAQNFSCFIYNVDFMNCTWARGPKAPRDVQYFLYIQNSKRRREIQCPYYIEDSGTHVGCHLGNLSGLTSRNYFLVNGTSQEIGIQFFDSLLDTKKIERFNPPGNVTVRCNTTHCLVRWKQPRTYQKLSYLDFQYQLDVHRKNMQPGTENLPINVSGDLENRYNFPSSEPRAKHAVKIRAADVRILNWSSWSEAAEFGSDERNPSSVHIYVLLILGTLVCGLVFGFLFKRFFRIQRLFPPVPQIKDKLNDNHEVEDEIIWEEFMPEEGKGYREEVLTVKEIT

[7] = target: T1, human GM-CSFRα, full length on cells; assay: cell-based or functional assay; remark: listed apart in the source
[8] = target: T1, human GM-CSFRα, full length on cells; assay: cell-based or functional assay; remark: listed apart in the source
[9] = target: T1, human GM-CSFRα, full length on cells; assay: cell-based or functional assay; remark: listed apart in the source
[10] = target: T1, human GM-CSFRα, full length on cells; assay: cell-based or functional assay; remark: listed apart in the source
human GM-CSFRα-6His [11] = target: T2, human GM-CSFRα-6His; assay: ELISA, antibodies as human IgG4, one bar for each protein; antibody concentration not shown
human GM-CSFRα-6His [12] = target: T2, human GM-CSFRα-6His; assay: competitive ELISA, title on the sheet 'Blocking GMRah binding to GM-CSF'; antibody (human IgG4) titrated; blocked ligand GM-CSF; x axis 'Log Ab concentration', no unit

IC50, CD11b expression on human peripheral blood cells [1]: 0.181 µg/mL
IC50, IL-1β secretion by PBMC [1]: 0.0126 µg/mL
IC50, TNFα secretion by PBMC (ELISA) [1]: 1.74 µg/mL
IC50, TNFα secretion by PBMC (Human Macrophage/Microglia Panel) [1]: 3.09 µg/mL
Molecule: Mab-IgG4 (Mavrilimumab) (antibody)

Kd (human GM-CSFRα-6His [2]): 8.9 pM
koff (human GM-CSFRα-6His [2]): 4.78e-05 s⁻¹
kon (human GM-CSFRα-6His [2]): 5.37e+06 M⁻¹ s⁻¹
IC50, TF-1 cell proliferation [4]: 0.0474 µg/mL
IC50, TNFα secretion by PBMC (ELISA) [5]: 0.329 µg/mL
IC50, cynomolgus monkey granulocyte shape change [6]: 0.00253 µg/mL
IC50, TNFα secretion by PBMC (Human Macrophage/Microglia Panel) [7]: 0.278 µg/mL
IC50, human granulocyte shape change [8]: 0.00205 µg/mL
IC50, CD11b expression on human peripheral blood cells [9]: 0.111 µg/mL
IC50, IL-1β secretion by PBMC [10]: 0.00353 µg/mL
B1: E35-IgG4 (antibody, V domains shown)
VH: QMQLVQSGAEVKKPGASVKVSCKVSGYTLTELSIHWVRQAPGKGLEWMGGFDPEDGETIYAQKFQGRVTMTGDTSTDTAYLELSSLRSEDTALYYCATGRYTSLATTYGFDYWGQGTLVTVSS
VL: EIVMTQSPATLSLSPGERATLSCRASQSVSSYLAWYQQKPGQAPRLLIYGASSRATGIPDRFSGSGSGTDFTLTISRLEPEDFAVYYCQQYDNWPYTFGQGTKLEIK
notes: human IgG4, human kappa; also called E35-IG4
IC50, human granulocyte survival [3]: 0.0042 µg/mL

binding result (human GM-CSFRα-6His [11]): binds
B2: E87-IgG4 (antibody, V domains shown)
VH: B1 VH with F64S, T102V, A105F, T106F, T107N
VL: B1 VL with D92N, Y96P
notes: human IgG4, human kappa

Kd (human GM-CSFRα-6His [2]): 6.75 pM
koff (human GM-CSFRα-6His [2]): 2.42e-05 s⁻¹
kon (human GM-CSFRα-6His [2]): 3.58e+06 M⁻¹ s⁻¹
IC50, TNFα secretion by PBMC (ELISA) [5]: 0.0935 µg/mL
IC50, TNFα secretion by PBMC (Human Macrophage/Microglia Panel) [7]: 0.0666 µg/mL
IC50, human granulocyte shape change [8]: 0.00151 µg/mL
IC50, CD11b expression on human peripheral blood cells [9]: 0.144 µg/mL
IC50, IL-1β secretion by PBMC [10]: 0.0133 µg/mL
B3: E87b-IgG4 (antibody, V domains shown)
VH: B1 VH with F64S, T102V, A105F, T106F, T107N
VL: B1 VL
notes: human IgG4, human kappa
IC50, human granulocyte survival [3]: 0.00253 µg/mL

binding result (human GM-CSFRα-6His [12]): binds
B4: E113-IgG4 (antibody, V domains shown)
VH: B1 VH with F64S, S103E, A105F, T106A, T107S
VL: B1 VL with D92N
notes: human IgG4, human kappa

binding result (human GM-CSFRα-6His [12]): binds
B5: EII33-IgG4 (antibody, V domains shown)
VH: B1 VH with P53G, E54D, D55G, G56E, T106A
VL: B1 VL with D92R, Y96F
notes: human IgG4, human kappa

binding result (human GM-CSFRα-6His [12]): binds
B6: T119-IgG4 (antibody, V domains shown)
VH: B1 VH with Y27H, I59N, F64S, T102C, L104T, A105D, T107C
VL: B1 VL with D92N, Y96P
notes: human IgG4, human kappa; parent antibody

binding result (human GM-CSFRα-6His [12]): binds
B7: E200a-IgG4 (antibody, V domains shown)
VH: B1 VH with S33P, I34M, S103I, L104I, A105T, T107N
VL: B1 VL with Y96P
notes: human IgG4, human kappa

binding result (human GM-CSFRα-6His [12]): binds
B8: E94-IgG4 (antibody, V domains shown)
VH: B1 VH with Y27H, I34M, T102C, S103E, L104T, A105D, T106I, T107C
VL: B1 VL with D92N, Y96P
notes: human IgG4, human kappa

IC50, human granulocyte shape change [8]: 0.00207 µg/mL
B9: E108-IgG4 (antibody, V domains shown)
VH: B1 VH with Y27H, S103E, A105Y, T106Q, T107N
VL: B1 VL with D92N, Y96P
IC50, human granulocyte survival [3]: 0.00552 µg/mL

binding result (human GM-CSFRα-6His [12]): binds
B10: EII52-IgG4 (antibody, V domains shown)
VH: B1 VH with P53G, E54D, D55I, G56E
VL: B1 VL with D92A, W94P, Y96N
notes: human IgG4, human kappa

binding result (human GM-CSFRα-6His [12]): binds
B11: E90-IgG4 (antibody, V domains shown)
VH: B1 VH with F64S, S103G, A105Y, T106A, T107S
VL: B1 VL
notes: human IgG4, human kappa
